T1: HCV NS3 1073 (genotype 5) peptide on HLA-A*02:01 (human)
T1 peptide: CINGVMWTV

T2: HCV NS3 1073 (genotype 2) peptide on HLA-A*02:01 (human)
T2 peptide: TISGVLWTV

T3: Flu neuraminidase (Flu-NA231) peptide on HLA-A*02:01 (human)
T3 peptide: CVNGSCFTV

T4: HCV NS3 1073-1081, alanine analogue 1073-Ala (position 1) peptide on HLA-A*02:01 (human)
T4 peptide: AINGVCWTV

T5: HCV NS5 peptide on HLA-A*02:01 (human)
T5 peptide: VLTDFKTWL

T6: HCV NS5 (NS5 2221) peptide on HLA-A*02:01 (human)
T6 peptide: SPDADLIEANL

T7: HCMV pp65 (pp65 495) peptide on HLA-A*02:01 (human)
T7 peptide: NLVPMVATV

T8: HCV NS3 (genotype 1b) peptide on HLA-A*02:01 (human)
T8 peptide: CVNGVCWTV

T9: HCV NS3 1073 (genotype 4) peptide on HLA-A*02:01 (human)
T9 peptide: AVNGVMWTV

T10: HCV NS3 1073 (genotype 3) peptide on HLA-A*02:01 (human)
T10 peptide: TIGGVMWTV

T11: HCV NS3 peptide on HLA-A*02:01 (human)
T11 peptide: KLVALGINAV

T12: HCV NS3 1073 (genotype 6) peptide on HLA-A*02:01 (human)
T12 peptide: AINGVMWTV

T13: HCV NS3 (genotype 1a) peptide on HLA-A*02:01 (human)
T13 peptide: CINGVCWTV

T14: HCV NS3 1073-1081, alanine analogue 1081-Ala (position 9) peptide on HLA-A*02:01 (human)
T14 peptide: CINGVCWTA

T15: HCV NS3 1073-1081, alanine analogue 1080-Ala (position 8) peptide on HLA-A*02:01 (human)
T15 peptide: CINGVCWAV

T16: HCV NS3 1073-1081, alanine analogue 1078-Ala (position 6) peptide on HLA-A*02:01 (human)
T16 peptide: CINGVAWTV

T17: HCV NS3 1073-1081, alanine analogue 1074-Ala (position 2) peptide on HLA-A*02:01 (human)
T17 peptide: CANGVCWTV

T18: HCV NS3 (genotype 1a) peptide on HLA-A*02:01 (human/mouse chimera)
T18 peptide: CINGVCWTV


Assays:
[1] = biological target: T1, HCV NS3 1073 (genotype 5) peptide on …; test: cytokine release
[2] = biological target: T2, HCV NS3 1073 (genotype 2) peptide on …; test: cytokine release
[3] = biological target: T3, Flu neuraminidase (Flu-NA231) peptide …; test: cytokine release
[4] = biological target: T4, HCV NS3 1073-1081, alanine analogue …; test: cytokine release
[5] = biological target: T5, HCV NS5 peptide on HLA-A*02:01; test: cytokine release
[6] = biological target: T6, HCV NS5 (NS5 2221) peptide on …; test: cytokine release
[7] = biological target: T7, HCMV pp65 (pp65 495) peptide on …; test: cytokine release
[8] = biological target: T8, HCV NS3 (genotype 1b) peptide on …; test: cytokine release
[9] = biological target: T9, HCV NS3 1073 (genotype 4) peptide on …; test: cytokine release
[10] = biological target: T10, HCV NS3 1073 (genotype 3) peptide on …; test: cytokine release
[11] = biological target: T11, HCV NS3 peptide on HLA-A*02:01; test: cytokine release
[12] = biological target: T12, HCV NS3 1073 (genotype 6) peptide on …; test: cytokine release
[13] = biological target: T13, HCV NS3 (genotype 1a) peptide on …; test: T cell clone or line
[14] = biological target: T14, HCV NS3 1073-1081, alanine analogue …; test: cytokine release
[15] = biological target: T15, HCV NS3 1073-1081, alanine analogue …; test: cytokine release
[16] = biological target: T16, HCV NS3 1073-1081, alanine analogue …; test: cytokine release
[17] = biological target: T17, HCV NS3 1073-1081, alanine analogue …; test: T cell clone or line
[18] = biological target: T18, HCV NS3 (genotype 1a) peptide on …; test: cytokine release
[19] = biological target: T17, HCV NS3 1073-1081, alanine analogue …; test: cytokine release
[20] = biological target: T13, HCV NS3 (genotype 1a) peptide on …; test: multimer staining

Binder | binding result [1] | binding result [2] | binding result [3] | binding result [4] | binding result [5] | binding result [6] | binding result [7] | binding result [8] | binding result [9] | binding result [10] | binding result [11] | binding result [12] | binding result [14] | binding result [15] | binding result [16] | peptide concentration at which reactive [13] [ng/mL] | also measured
I8A4 (TCR, V domains shown) Valpha: LAKTTQPPSMEAYEGQEVNVSCSHTNIATSEYIYWYRQVPHQGPQFIIQGYKDYVVNEVASLFISADRKLSTLSLPWVSLRDAAVYYCIVTDMETGGYKVVFGSGTRLLVSP Vbeta: EAAVTQSPRNKVAVTGGKVTLSCNQTNNHNNMYWYRQDTGHGLRLIHYSYGAGSTEKGDIPDGYKASRPSQENFSLILELATPSQTSVYFCASASTGASSYEQYFGPGTRLTVL | no recognition | no recognition | no recognition | recognises | no recognition | no recognition | no recognition | recognises | no recognition | no recognition | no recognition | no recognition | – | – | – | – | EC50 of peptide [13]: ≤ 0.4 µg/mL
TCR-19 (TCR, V domains shown) Valpha: GEKVEQHQSTLSVREGDSAVINCTYTDTASSYFPWYKQEAGKSLHFVIDIRSNVDRKQSQRLTVLLDKKAKRFSLHITATQPEDSAIYFCAASLITGNTGKLIFGLGTTLQVQP Vbeta: GGIITQTPKFLIGQEGQKLTLKCQQNFNHDTMYWYRQDSGKGLRLIYYSITENDLQKGDLSEGYDASREKKSSFSLTVTSAQKNEMAVFLCASSLTANTEVFFGKGTRLTVV | – | – | – | – | recognises | – | – | – | – | – | – | – | – | – | – | – | –
I4G7 alpha chain with I4G7 beta chain1 (TCR, V domains shown) Valpha: AQSVTQPDARVTVSEGASLQLRCKYSYFGTPYRIEFSGREFALLFWYVQYPRQGLQLLLKYYPGDPVVQGVNGFEAEFSKSNSSFHLRKASVHWSDWAVYFCAVSRDTNTGKLTFGDGTVLTVKP Vbeta: EAAVTQSPRNKVAVTGGKVTLSCNQTNNHNNMGELNLAAANSPLYWYRQDTGHGLRLIHYSYVADSTEKGDIPDGYKASRPSQENFSLILELASLSQTAVYFCASSGGLGGHTLYFGAGTRLSVL | no recognition | no recognition | no recognition | recognises | no recognition | no recognition | no recognition | recognises | no recognition | no recognition | no recognition | no recognition | recognises | recognises | recognises | < 100 | EC50 of peptide [17]: 0.08 µg/mL
TCR-69 (TCR, V domains shown) Valpha: LAKTTQPPSMEAYEGQEVNVSCSHTNIATSEYIYWYRQVPHQGPQFIIQGYKDYVVNEVASLFISADRKLSTLSLPWVSLRDAAVYYCIVTDLGITGNTGKLIFGLGTTLQVQP Vbeta: EAAVTQSPRNKVAVTGGKVTLSCNQTNNHNNMYWYRQDTGHGLRLIHYSYGAGSTEKGDIPDGYKASRPSQENFSLILELATPSQTSVYFCASGDEGYNSPLYFAAGTRLTVT | – | – | – | – | recognises | – | – | – | – | – | – | – | – | – | – | – | –
I4G7 alpha chain with I4G7 beta chain2 (TCR, V domains shown) Valpha: AQSVTQPDARVTVSEGASLQLRCKYSYFGTPYLFWYVQYPRQGLQLLLKYYPGDPVVQGVNGFEAEFSKSNSSFHLRKASVHWSDWAVYFCAVSRDTNTGKLTFGDGTVLTVKP Vbeta: EAAVTQSPRNKVTVTGGNVTLSCRQTNSHNYMYWYRQDTGHGLRLIHYSYGAGNLRIGDVPDGYKATRTTQEDFFLLLELASPSQTSLYFCASSDYRDSGNTLYFGEGSRLIVV | no recognition | no recognition | no recognition | recognises | no recognition | no recognition | no recognition | recognises | no recognition | no recognition | no recognition | no recognition | recognises | recognises | recognises | < 100 | EC50 of peptide [17]: 0.08 µg/mL
I8H4 (TCR, V domains shown) Valpha: AQKVTQTQTSISVVEKTTVTMDCVYETRDSSYFLFWYKQTASGEIVFLIRQDSYKKENATVGHYSLNFQKPKSSIGLIITATQIEDSAVYFCAMREITGNTGKLIFGLGTTLQVQP Vbeta: EAAVTQSPRNKVTVTGGNVTLSCRQTNSHNYMYWYRQDTGHGLRLIHYSYGAGNLRIGDVPDGYKATRTTQEDFFLLLELASPSQTSLYFCASSDALGGEDAEQFFGPGTRLTVL | no recognition | no recognition | no recognition | recognises | no recognition | no recognition | no recognition | recognises | no recognition | no recognition | no recognition | no recognition | recognises | recognises | recognises | – | binding result [18]: recognises; binding result [19]: recognises; binding result [20]: recognises
I4F8 (TCR, V domains shown) Valpha: AQSVTQPDARVTVSEGASLQLRCKYSYFGTPYLFWYVQYPRQGLQLLLKYYPGDPVVQGVNGFEAEFSKSNSSFHLRKASVHWSDWAVYFCAVSNMGYKLTFGTGTSLLVDP Vbeta: DPKIIQKPKYLVAVTGSEKILICEQYLGHNAMYWYRQSAKKPLEFMFSYSYQKLMDNQTASSRFQPQSSKKNHLDLQITALKPDDSATYFCASSQEMGGALEQYFGPGTRLTVL | no recognition | no recognition | no recognition | recognises | no recognition | no recognition | no recognition | recognises | no recognition | no recognition | no recognition | no recognition | recognises | recognises | recognises | < 100 | binding result [19]: recognises
